Assay [1] concerns the target T1, HER2 over expressed in mouse colonic neoplasia (CPC;Apc mice) (mouse, UniProt P70424 23-1256).
T1 construct: whole, on cells; no isolated mouse HER2 was tested; also called mouse HER2
Put plainly: fluorescence imaging of mouse colon after intravenous KSP*-Cy5.5, n=4 mice.

Assay [2] concerns the target T2, Human epidermal growth factor receptor 2 (HER2) (human, UniProt P04626 23-1255).
T2 construct: whole, on cells; also called ErbB2
Put plainly: flow cytometry on HT29 cells, apparent dissociation constant, 0-200 nM peptide, 4 °C 1 h. The method, then: We measured the apparent dissociation constant of the HER2 peptide reagent to HT29 cells as an assessment of binding affinity. KSP*-Cy5.5 was serially diluted in PBS at concentrations of 0, 5, 10, 25, 50, 100, and 200 nM. ˜105 HT29 cells were incubated with KSP*-Cy5.5 at 4° C. for 1 hour and washed with cold PBS. The mean fluorescence intensities were measured with flow cytometry (BD® LSRII, BD Biosciences). The equilibrium dissociation constant kd=1/ka was calculated by performing a least squares fit of the data to the non-linear equation I, (I0+Imaxka[X])/([…]). I0 and Imax are the initial and maximum fluorescence intensities, corresponding to no peptide reagent and at saturation, respectively, and [X] represents the concentration of the bound peptide reagent. Graphpad prism analysis software (Graphpad Software Inc, La Jolla, Calif.) was used to calculate kd and ka.
We evaluated the binding parameters of KSP*-Cy5.5 to HT29 cells using flow cytometry.
On the technique in general: Flow cytometry measures light scatter and fluorescence of single cells or particles in a stream.

Assay [3] concerns the target T1, HER2 over expressed in mouse colonic …. In words: in vivo NIR fluorescence endoscopy, topical peptide, n=15 adenomas in mice, target-to-background ratio. As for the experimental part: Mouse imaging studies were performed with approval of the University of Michigan Committee on the Use and Care of Animals (UCUCA). The mice were housed in pathogen-free conditions and supplied water ad libitum under controlled conditions of humidity (50±10%), light (12/12 hour light/dark cycle) and temperature (25° C.). Anesthesia was induced and maintained via a nose cone with inhaled isoflurane mixed with oxygen at a concentration of 2-4% at a flow rate of ˜0.5 L/min. The colon was first rinsed with tap water to remove mucous and debris. White light illumination was used first to identify anatomic landmarks, including polyps, mucosal folds, colonic segment, and distance of endoscope tip from anus, to register the in vivo images with histology. […] During imaging, we recorded the 1) distance between the endoscope tip and the anus and 2) clockwise location of each region of high intensity. […]
We evaluated specific binding of KSP*-Cy5.5 to colonic adenomas that over express HER2 in CPC; Apc mice This mouse was genetically engineered to somatically delete an Apc allele under Cre regulation, and develops polypoid and flat adenomas spontaneously in the colon. […] Imaging was performed in vivo using a small animal endoscope that is sensitive to NIR fluorescence. […]

In assay [4] the target is HER2 over expressed in mouse colonic neoplasia (CPC;Apc mice) (mouse) (UniProt P70424). In words: in vivo NIR fluorescence endoscopy, topical peptide, n=7 adenomas in mice, target-to-background ratio.
Chain of HER2 over expressed in mouse colonic neoplasia (CPC;Apc mice) (mouse) (P70424 23-1256): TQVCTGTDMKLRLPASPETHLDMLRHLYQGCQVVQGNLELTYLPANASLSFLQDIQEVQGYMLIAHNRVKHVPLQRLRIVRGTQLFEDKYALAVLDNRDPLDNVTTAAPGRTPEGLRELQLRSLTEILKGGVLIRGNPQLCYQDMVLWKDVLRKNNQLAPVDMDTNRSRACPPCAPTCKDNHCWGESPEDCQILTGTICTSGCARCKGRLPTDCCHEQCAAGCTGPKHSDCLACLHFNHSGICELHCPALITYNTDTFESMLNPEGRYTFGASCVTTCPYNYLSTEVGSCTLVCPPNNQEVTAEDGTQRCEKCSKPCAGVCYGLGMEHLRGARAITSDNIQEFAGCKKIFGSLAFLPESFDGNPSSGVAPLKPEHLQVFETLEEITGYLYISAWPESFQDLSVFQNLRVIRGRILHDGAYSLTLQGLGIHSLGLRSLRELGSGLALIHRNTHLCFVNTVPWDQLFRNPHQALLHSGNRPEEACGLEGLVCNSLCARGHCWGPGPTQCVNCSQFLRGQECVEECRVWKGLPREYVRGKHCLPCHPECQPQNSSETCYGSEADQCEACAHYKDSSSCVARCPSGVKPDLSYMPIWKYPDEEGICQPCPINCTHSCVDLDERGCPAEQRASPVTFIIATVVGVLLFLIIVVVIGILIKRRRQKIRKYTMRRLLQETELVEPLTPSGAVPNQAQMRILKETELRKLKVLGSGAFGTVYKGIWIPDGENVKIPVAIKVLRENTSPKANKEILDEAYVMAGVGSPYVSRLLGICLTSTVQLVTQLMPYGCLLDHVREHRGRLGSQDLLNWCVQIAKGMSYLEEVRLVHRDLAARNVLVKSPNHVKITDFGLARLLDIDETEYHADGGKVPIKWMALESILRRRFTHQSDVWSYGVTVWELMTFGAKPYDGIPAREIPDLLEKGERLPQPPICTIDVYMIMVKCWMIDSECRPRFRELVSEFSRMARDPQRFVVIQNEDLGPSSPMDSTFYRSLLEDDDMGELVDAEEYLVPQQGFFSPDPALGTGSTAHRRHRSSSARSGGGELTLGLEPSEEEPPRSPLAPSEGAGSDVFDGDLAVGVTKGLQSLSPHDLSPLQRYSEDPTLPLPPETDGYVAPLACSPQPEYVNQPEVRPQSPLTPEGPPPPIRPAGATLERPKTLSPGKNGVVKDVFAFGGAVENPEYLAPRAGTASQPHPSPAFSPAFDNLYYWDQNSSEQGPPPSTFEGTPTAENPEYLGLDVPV
The target of assay [5] is T2, Human epidermal growth factor receptor …. Put plainly: confocal microscopy, 10 µM FITC-labeled peptide on Flo1-HER2 cells against Q-hTERT control cells. The method, then:
Flo-1-Her2 and Q-hTERT cells were seeded with ˜7,500 cells in 12-well plates with 1.5 mm thick glass cover slides, and grown to ˜70% confluence. The cells were gently washed with cold PBS before adding the peptide. 10 μM of FITC-labeled peptide was added to each well and incubated at 4° C. for 1 hour. After incubation, the cells were washed 3× with PBS, fixed in ice-cold 4% PFA for 10 min, and washed 1× with PBS. Subsequently, the cells were embedded on microscope slides with ProLong Gold reagent containing DAPI (Invitrogen), and the slides where analyzed with a Leica TCS SP5 confocal microscope using 63× oil immersion objective (Leica Microsystems, Leider Lane IL). The FITC-labeled peptides and anti-HER2 antibody were tested in quadruplicate.
We attached a FITC label to each peptide, and imaged binding to Flo1-HER2 and Q-hTERT cells (control) using confocal microscopy. Western blot of these cells show difference in HER2 expression, FIG. 1B. We selected KSPNPRF based on the highest mean fluorescence intensity with binding to Flo1-HER2, FIG. 1C. From our model, this peptide binds to HER2 domain 3. […] The fluorescence emission peak occurs at 708 nm in the NIR spectrum. For both peptides, we achieved >98% purity with HPLC, and measured an experimental mass-to-charge (m/z) ratio on mass spectrometry of 1794.98, which agrees with expected values, FIG. 8A,B.

We go through three molecules from US20180273584A1 (REGENTS OF THE UNIVERSITY OF MICHIGAN, published 2018).

Primed or numbered codes have the meaning given here. Ends that are not written are not given here. Cy5.5 = Cy5.5: Cy5.5 fluorophore (fluorescent dye); Cy5.5″ = Cy5.5 fluorophore

T1 sequence (P70424 23-1256): as above

B1: KSP*-Cy5.5 (KSPNPRF peptide labeled with Cy5.5 fluorophore via a GGGSK linker on the C-terminus) (peptide)
peptide: KSPNPRFGGGSK(Cy5.5)-NH2
notes: Synthetic L-amino-acid peptide, Fmoc solid-phase synthesis; also called HER2 peptide reagent; KSP*-Cy5.5 peptide reagent
As for B1, in assay [1], the “fold mean fluorescence intensity, adenomas against surrounding normal mucosa” value amounted to 5.03 fold. Moreover, the Kd in assay [2] came to 21 nM. In assay [3], the “mean T/B ratio” value worked out at 3.64.

B2: PPS*-Cy5.5 (scrambled control peptide PPSNFKR linked to Cy5.5 via GGGSK) (peptide)
peptide: PPSNFKRGGGSK(Cy5.5″)-NH2
For B2, the mean T/B ratio in assay [4] was found to be 1.46.

B3: FITC-labeled KSPNPRF (PEP1) (peptide)
peptide: KSPNPRF
modifications: also: FITC label, site of attachment not given here
notes: also called FITC-labeled peptide
In the case of B3, the binding result in assay [5] is on record as “binds”.
